{"source": "paper doi:10.1101/2023.08.07.552315", "about": "(bioRxiv, 2023)", "key": {"[1]": {"target": "Mis12 complex (full length; MIS12, PMF1, NSL1, DSN1) (human) (UniProt Q9H081)", "assay": "ITC"}, "[2]": {"target": "Mis12 complex (full length; MIS12, PMF1, NSL1, DSN1) (human) (UniProt Q9H081)", "assay": "BLI"}, "[3]": {"target": "Mis12C/KNL1^2026-2342 complex (human) (UniProt Q9H081)", "assay": "BLI"}, "[4]": {"target": "Mis12 complex mutant Mis12C^M3 (human) (UniProt Q9H081)", "assay": "ITC"}, "[5]": {"target": "Mis12 complex mutant Mis12C^M4 (human) (UniProt Q9H081)", "assay": "ITC"}, "[6]": {"target": "T1, DSN1 (subunit of the Mis12 complex in the KMN cryo-EM sample) (human, UniProt Q9H410 1-356)", "T1 sequence (looked up)": "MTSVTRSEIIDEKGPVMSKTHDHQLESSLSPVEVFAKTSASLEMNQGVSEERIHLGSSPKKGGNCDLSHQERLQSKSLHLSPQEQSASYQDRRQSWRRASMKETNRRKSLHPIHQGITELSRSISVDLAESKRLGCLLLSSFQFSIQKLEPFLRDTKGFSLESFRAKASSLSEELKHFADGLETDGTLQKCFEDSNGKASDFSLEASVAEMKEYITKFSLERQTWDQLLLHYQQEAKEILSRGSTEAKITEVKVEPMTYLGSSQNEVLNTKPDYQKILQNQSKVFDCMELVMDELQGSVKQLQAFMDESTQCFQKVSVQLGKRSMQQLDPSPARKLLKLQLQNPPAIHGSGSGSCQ", "assay": "cryo-EM structure"}, "[7]": {"target": "T2, NSL1 (subunit of the Mis12 complex in the KMN cryo-EM sample) (human, UniProt Q96IY1 1-281)", "T2 sequence (looked up)": "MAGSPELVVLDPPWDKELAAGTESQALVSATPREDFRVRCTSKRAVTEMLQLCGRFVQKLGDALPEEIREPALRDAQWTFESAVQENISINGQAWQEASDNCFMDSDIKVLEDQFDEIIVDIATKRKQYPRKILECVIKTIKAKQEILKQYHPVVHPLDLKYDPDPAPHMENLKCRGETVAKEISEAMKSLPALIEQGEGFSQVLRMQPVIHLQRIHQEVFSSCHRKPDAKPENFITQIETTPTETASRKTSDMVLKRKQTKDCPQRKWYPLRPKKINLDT", "assay": "cryo-EM structure"}, "SPC25 residues 92-224": {"target": "T3, SPC25 residues 92-224 (human, UniProt Q9HBM1 92-224)", "T3 sequence (looked up)": "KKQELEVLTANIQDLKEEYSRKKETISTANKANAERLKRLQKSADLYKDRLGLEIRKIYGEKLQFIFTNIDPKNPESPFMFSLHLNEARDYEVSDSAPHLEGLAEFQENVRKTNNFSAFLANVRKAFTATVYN", "assay": "cryo-EM structure"}, "[8]": {"target": "Ndc80 complex (NDC80/HEC1, NUF2, SPC24, SPC25) (human, UniProt O14777 1-642; Q9BZD4 1-464; Q8NBT2 1-197; Q9HBM1 1-224)", "sequence (O14777 whole entry, chain 1 of 2)": "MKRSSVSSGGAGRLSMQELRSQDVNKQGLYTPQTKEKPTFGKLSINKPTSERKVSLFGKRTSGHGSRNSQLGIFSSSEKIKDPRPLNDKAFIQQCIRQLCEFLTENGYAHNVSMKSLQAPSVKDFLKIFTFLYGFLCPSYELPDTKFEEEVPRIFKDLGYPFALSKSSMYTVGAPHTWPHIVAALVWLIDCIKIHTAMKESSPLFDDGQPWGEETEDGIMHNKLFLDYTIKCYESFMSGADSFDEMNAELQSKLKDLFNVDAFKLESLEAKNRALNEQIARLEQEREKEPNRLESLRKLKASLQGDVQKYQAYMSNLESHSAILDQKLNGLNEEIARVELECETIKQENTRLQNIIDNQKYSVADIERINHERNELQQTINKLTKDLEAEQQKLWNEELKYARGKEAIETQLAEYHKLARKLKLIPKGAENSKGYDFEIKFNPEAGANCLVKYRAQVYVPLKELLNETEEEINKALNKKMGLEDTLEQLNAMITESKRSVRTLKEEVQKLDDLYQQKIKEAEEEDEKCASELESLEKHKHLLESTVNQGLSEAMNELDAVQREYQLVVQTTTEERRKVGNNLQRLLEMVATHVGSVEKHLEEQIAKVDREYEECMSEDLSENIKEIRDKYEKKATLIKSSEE", "sequence (Q9BZD4 whole entry, chain 2 of 2)": "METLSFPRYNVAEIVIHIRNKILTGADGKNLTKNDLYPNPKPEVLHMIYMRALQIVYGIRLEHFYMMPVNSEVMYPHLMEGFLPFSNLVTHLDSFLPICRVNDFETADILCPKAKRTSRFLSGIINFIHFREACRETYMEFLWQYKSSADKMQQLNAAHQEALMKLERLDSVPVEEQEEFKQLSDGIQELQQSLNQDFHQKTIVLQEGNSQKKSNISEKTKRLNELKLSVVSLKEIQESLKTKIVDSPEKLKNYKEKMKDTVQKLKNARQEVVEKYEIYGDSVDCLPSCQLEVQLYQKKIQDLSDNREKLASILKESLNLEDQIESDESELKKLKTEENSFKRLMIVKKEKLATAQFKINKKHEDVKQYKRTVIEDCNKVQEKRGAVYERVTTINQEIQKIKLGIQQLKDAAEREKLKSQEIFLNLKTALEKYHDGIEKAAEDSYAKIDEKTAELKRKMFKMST", "assay": "BLI"}}, "data": [{"molecule": "KNL1 residues 2026-2342 (domain or fragment)", "values": [{"measurement": "Kd", "setting": "[1]", "result": 1.6, "unit": "nM"}, {"measurement": "Kd", "setting": "[2]", "result": 2, "unit": "nM"}]}, {"molecule": "Ndc80 complex (NDC80/HEC1, NUF2, SPC24, SPC25) (from UniProt O14777 1-642; Q9BZD4 1-464; Q8NBT2 1-197; Q9HBM1 1-224)", "values": [{"measurement": "Kd", "setting": "[3]", "result": 1, "unit": "nM"}, {"measurement": "koff", "setting": "[3]", "result": 0.0001, "unit": "s⁻¹"}]}, {"molecule": "SPC24^109-197/SPC25^92-224 dimer (complex, human) chain 1: EELKEIEADLERQEKEVDEDTTVTIPSAVYVAQLYHQVSKIEWDYECEPGMVKGIHHGPSVAQPIHLDSTQLSRKFISDYLWSLVDTEW chain 2: KKQELEVLTANIQDLKEEYSRKKETISTANKANAERLKRLQKSADLYKDRLGLEIRKIYGEKLQFIFTNIDPKNPESPFMFSLHLNEARDYEVSDSAPHLEGLAEFQENVRKTNNFSAFLANVRKAFTATVYN", "values": [{"measurement": "fold reduction of the binding affinity against wild-type Mis12C", "setting": "[4]", "result": 20, "unit": "fold"}, {"measurement": "fold reduction of the binding affinity against wild-type Mis12C", "setting": "[5]", "result": 10, "unit": "fold"}, {"measurement": "binding result", "setting": "[6]", "result": "binds"}, {"measurement": "binding result", "setting": "[7]", "result": "binds"}]}, {"molecule": "SPC24 residues 109-197 (domain or fragment, human, UniProt Q8NBT2 109-197, looked up) EELKEIEADLERQEKEVDEDTTVTIPSAVYVAQLYHQVSKIEWDYECEPGMVKGIHHGPSVAQPIHLDSTQLSRKFISDYLWSLVDTEW", "values": [{"measurement": "binding result", "setting": "SPC25 residues 92-224", "result": "binds"}]}, {"molecule": "Mis12 complex (full length; MIS12, PMF1, NSL1, DSN1) (complex, human) chain 1: MSVDPMTYEAQFFGFTPQTCMLRIYIAFQDYLFEVMQAVEQVILKKLDGIPDCDISPVQIRKCTEKFLCFMKGHFDNLFSKMEQLFLQLILRIPSNILLPEDKCKETPYSEEDFQHLQKEIEQLQEKYKTELCTKQALLAELEEQKIVQAKLKQTLTFFDELHNVGRDHGTSDFRESLVSLVQNSRKLQNIRDNVEKESKRLKIS chain 2: MAEASSANLGSGCEEKRHEGSSSESVPPGTTISRVKLLDTMVDTFLQKLVAAGSYQRFTDCYKCFYQLQPAMTQQIYDKFIAQLQTSIREEISDIKEEGNLEAVLNALDKIVEEGKVRKEPAWRPSGIPEKDLHSVMAPYFLQQRDTLRRHVQKQEAENQQLADAVLAGRRQVEELQLQVQAQQQAWQALHREQRELVAVLREPE chain 3: MAGSPELVVLDPPWDKELAAGTESQALVSATPREDFRVRCTSKRAVTEMLQLCGRFVQKLGDALPEEIREPALRDAQWTFESAVQENISINGQAWQEASDNCFMDSDIKVLEDQFDEIIVDIATKRKQYPRKILECVIKTIKAKQEILKQYHPVVHPLDLKYDPDPAPHMENLKCRGETVAKEISEAMKSLPALIEQGEGFSQVLRMQPVIHLQRIHQEVFSSCHRKPDAKPENFITQIETTPTETASRKTSDMVLKRKQTKDCPQRKWYPLRPKKINLDT chain 4: MTSVTRSEIIDEKGPVMSKTHDHQLESSLSPVEVFAKTSASLEMNQGVSEERIHLGSSPKKGGNCDLSHQERLQSKSLHLSPQEQSASYQDRRQSWRRASMKETNRRKSLHPIHQGITELSRSISVDLAESKRLGCLLLSSFQFSIQKLEPFLRDTKGFSLESFRAKASSLSEELKHFADGLETDGTLQKCFEDSNGKASDFSLEASVAEMKEYITKFSLERQTWDQLLLHYQQEAKEILSRGSTEAKITEVKVEPMTYLGSSQNEVLNTKPDYQKILQNQSKVFDCMELVMDELQGSVKQLQAFMDESTQCFQKVSVQLGKRSMQQLDPSPARKLLKLQLQNPPAIHGSGSGSCQ", "values": [{"measurement": "Kd", "setting": "[8]", "result": "~6", "unit": "nM"}, {"measurement": "koff", "setting": "[8]", "result": "~0.0001", "unit": "s⁻¹"}]}]}
